Reference: US20230220031A1 (Stanford University, published 2023)

B1: human p40 tetramer (biotinylated human IL-12p40 on streptavidin-AF647) (ligand)
chain: IWELKKDVYVVELDWYPDAPGEMVVLTCDTPEEDGITWTLDQSSEVLGSGKTLTIQVKEFGDAGQYTCHKGGEVLSHSLLLLHKKEDGIWSTDILKDQKEPKNKTFLRCEAKNYSGRFTCWWLTTISTDLTFSVKSSRGSSDPQGVTCGAATLSAERVRGDNKEYEYSVECQEDSACPAAEESLPIEVMVDAVHKLKYENYTSSFFIRDIIKPDPPKNLQLKPLKNSRQVEVSWEYPDTWSTPHSYFSLTFCVQVQGKSKREKKDRVFTDKTSATVICRKNASISVRAQDRYYSSSWSEWASVPCSGLNDIFEAQKIEWHEHHHHHH
modifications: biotinylated
notes: also called human p40 tetramers
B2: human IL-12p40 (23-328) with C-terminal AviTag and 6x His (ligand)
chain: B1 chain
notes: Immobilized partner in the SPR experiment; also called interleukin-12 subunit p40

Columns and labels:
[1] = biological target: T1, human IL-12Rβ1 on human T cells and NK cells (human, UniProt P42701 24-662); experiment: flow cytometry, 200 nM human p40 tetramer (streptavidin-AF647) against streptavidin alone, human PBMC: NK cells and CD8+ T cells ex vivo and CD8+ T cell blasts
T1 construct: whole, on cells

[2] = biological target: T2, human IL-12Rβ1 (soluble, SPR analyte) (UniProt P42701 24-545, limits assumed); experiment: SPR, IL-12Rβ1 over immobilized IL-12p40, steady state affinity model
T2 construct: also called IL-12 receptor beta 1

Binder	binding result [1]	Kd [2] [nM]
B1	binds	
B2		1700
